Results published in patent US20240376183A1.

How the values were obtained:
Assay in all cases: cell-based or functional assay
[1] = molecular target: HIV-1 Env protein of virus strain 89-F1_2_25 (HIV-1)
[2] = molecular target: HIV-1 Env of pseudovirus strain 6545.v4.c1 (HIV-1)
[3] = molecular target: HIV-1 YU2 Env, wild type (YU2 pseudovirus) (HIV-1) (UniProt P35961)
Chain of HIV-1 YU2 Env, wild type (YU2 pseudovirus) (HIV-1) (P35961 32-843 limits assumed): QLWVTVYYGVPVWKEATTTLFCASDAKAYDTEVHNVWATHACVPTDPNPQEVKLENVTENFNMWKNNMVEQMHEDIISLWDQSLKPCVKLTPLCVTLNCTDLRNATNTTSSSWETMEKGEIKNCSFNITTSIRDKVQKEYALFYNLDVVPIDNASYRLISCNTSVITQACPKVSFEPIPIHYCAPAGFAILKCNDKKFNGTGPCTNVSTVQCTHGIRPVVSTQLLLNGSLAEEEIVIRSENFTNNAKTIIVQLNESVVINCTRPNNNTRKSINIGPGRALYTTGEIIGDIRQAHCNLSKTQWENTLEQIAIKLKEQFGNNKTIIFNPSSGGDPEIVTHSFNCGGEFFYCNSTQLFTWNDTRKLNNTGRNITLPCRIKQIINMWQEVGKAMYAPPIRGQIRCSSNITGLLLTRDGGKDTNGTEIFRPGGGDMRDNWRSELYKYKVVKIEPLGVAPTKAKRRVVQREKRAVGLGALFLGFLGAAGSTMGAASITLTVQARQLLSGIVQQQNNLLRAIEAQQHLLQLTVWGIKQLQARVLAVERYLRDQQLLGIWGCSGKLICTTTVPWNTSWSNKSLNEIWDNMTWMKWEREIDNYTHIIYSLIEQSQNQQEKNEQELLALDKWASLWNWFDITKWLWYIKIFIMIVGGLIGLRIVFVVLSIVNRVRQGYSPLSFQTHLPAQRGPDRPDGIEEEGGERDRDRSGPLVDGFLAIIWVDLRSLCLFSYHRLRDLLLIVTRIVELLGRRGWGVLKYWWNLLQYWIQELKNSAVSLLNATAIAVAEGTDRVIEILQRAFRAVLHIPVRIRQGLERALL

Row | Substance | IC50, TZM-bl pseudovirus neutralization assay [1] [µg/mL] | IC50, TZM-bl pseudovirus neutralization assay [2] [µg/mL] | IC50, TZM-bl cell neutralization assay [3] [µg/mL]
1 | 3BNC117 (antibody) | > 20 | > 20 | 
2 | 8ANC131 (antibody) |  |  | 0.256
3 | N6 (antibody) | > 20 | 16.2 | 
4 | VRC01 (antibody) | > 20 | > 20 | 0.107
5 | VRC07-523-LS (antibody) |  | > 20 | 
